Experimental data published in paper PMC8091058, “Distinct intramolecular interactions regulate autoinhibition of vinculin binding in αT-catenin and αE-catenin” (The Journal of Biological Chemistry, 2021).

What was measured:
[1] = molecular target: T1, αT-catenin M1-M3 (aa 260–626) (Mus musculus, UniProt Q65CL1 260-626); experiment: ITC; vinculin D1 titrated into an equimolar mixture of αT-catenin N1-N2 and M1-M3; 25 °C; 20 mM Hepes pH 8.0, 150 mM NaCl, 1 mM TCEP; conditions: both partners purified
T1 construct: αT-catenin, Mus musculus, M1-M3, aa 260-626; in pGEX-TEV; also called αT-catenin M-region; αT-catenin M1-M3 (260–626); source: E. coli BL21-Gold, purified (glutathione-agarose, TEV cleavage, Mono Q or Mono S, S200)
T1 sequence (looked up): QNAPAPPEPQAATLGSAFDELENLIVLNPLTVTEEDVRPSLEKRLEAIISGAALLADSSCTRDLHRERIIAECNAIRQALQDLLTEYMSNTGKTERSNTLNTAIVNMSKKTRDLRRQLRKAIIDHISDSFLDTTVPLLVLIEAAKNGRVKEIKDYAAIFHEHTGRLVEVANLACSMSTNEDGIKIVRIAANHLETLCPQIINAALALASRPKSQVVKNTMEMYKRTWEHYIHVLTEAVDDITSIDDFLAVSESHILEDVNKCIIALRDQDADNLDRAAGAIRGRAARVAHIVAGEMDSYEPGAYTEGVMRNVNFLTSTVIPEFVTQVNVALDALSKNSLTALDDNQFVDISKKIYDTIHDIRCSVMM

[2] = molecular target: 2I27–αT-catenin M1-M3 (aa 259–667)-2I27 (UniProt Q65CL1); experiment: ITC; vinculin D1 injected into αT-catenin or αE-catenin fragment (or αT-catenin head–β-catenin complex) in the cell; 25 °C; 20 mM Hepes pH 8.0, 150 mM NaCl, 1 mM TCEP
[3] = molecular target: T2, αT-catenin head region (aa 1–659) (Mus musculus, UniProt Q65CL1 1-659); experiment: as above; conditions: both partners purified
T2 construct: αT-catenin, Mus musculus, head region (N- and M-domains), aa 1-659; in pGEX-TEV; also called αT-catenin head (1–659); αT-catenin N1-M3 (aa 1–659); source: E. coli BL21-Gold, purified (glutathione-agarose, TEV cleavage, Mono Q or Mono S, S200)
T2 sequence (looked up): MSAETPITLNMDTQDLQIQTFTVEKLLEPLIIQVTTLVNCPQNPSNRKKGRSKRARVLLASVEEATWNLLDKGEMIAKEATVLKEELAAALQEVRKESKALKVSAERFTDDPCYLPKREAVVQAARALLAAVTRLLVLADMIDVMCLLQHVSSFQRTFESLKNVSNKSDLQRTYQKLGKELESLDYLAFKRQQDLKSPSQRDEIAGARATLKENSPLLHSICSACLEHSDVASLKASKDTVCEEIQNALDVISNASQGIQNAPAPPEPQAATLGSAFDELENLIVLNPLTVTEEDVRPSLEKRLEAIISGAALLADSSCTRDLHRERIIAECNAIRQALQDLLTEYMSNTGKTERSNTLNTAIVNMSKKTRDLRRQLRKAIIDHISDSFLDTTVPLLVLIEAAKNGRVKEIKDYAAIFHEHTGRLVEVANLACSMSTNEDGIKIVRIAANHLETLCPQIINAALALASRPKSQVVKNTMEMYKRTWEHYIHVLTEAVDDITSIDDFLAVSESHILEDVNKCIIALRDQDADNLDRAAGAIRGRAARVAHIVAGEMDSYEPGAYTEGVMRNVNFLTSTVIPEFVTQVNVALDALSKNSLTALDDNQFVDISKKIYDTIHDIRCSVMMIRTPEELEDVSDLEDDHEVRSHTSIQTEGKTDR

[4] = molecular target: T3, αT-catenin head (1–659)–β-catenin complex (Mus musculus, UniProt Q65CL1 1-659; Q02248 1-781); experiment: as above; conditions: both partners purified
T3 construct: αT-catenin, Mus musculus, head region, aa 1-659; β-catenin, Mus musculus, full length; also called αT-catenin head–β-catenin complex; source: E. coli BL21-Gold, purified; purified complex
T3 sequence (looked up) 1: T2 sequence (looked up)
T3 sequence (looked up) 2: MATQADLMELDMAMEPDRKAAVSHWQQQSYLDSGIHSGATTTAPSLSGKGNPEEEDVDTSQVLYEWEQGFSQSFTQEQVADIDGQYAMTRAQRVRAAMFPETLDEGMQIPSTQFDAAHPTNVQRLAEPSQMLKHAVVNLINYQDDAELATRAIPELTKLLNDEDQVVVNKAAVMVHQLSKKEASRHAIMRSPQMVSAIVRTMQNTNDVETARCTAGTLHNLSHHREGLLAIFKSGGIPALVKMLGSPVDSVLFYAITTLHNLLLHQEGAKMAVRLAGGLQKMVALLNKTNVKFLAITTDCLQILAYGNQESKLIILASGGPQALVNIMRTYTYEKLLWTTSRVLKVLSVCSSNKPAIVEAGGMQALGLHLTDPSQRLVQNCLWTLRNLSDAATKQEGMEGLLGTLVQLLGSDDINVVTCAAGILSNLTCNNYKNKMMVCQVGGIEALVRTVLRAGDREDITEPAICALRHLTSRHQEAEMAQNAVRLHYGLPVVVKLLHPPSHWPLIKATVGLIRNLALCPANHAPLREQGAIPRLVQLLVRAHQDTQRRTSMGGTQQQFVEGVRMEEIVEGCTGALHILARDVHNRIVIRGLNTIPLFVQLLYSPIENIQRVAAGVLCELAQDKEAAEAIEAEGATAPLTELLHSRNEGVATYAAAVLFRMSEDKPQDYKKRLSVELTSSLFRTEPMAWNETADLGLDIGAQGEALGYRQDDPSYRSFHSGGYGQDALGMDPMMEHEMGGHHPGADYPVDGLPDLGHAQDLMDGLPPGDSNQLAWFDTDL

Kd [1]: 50.1 ± 17.5 nM
dH [1]: -3.1 ± 0.1 kcal/mol
Kd [2]: 245 nM
dH [2]: 4.8 kcal/mol
Kd [3]: 4690 ± 2740 nM
dH [3]: 2.3 ± 1.3 kcal/mol
Kd [4]: 2770 ± 875 nM
dH [4]: 4.4 ± 0.6 kcal/mol
B1: vinculin D1 (aa 1–259) (domain or fragment, UniProt P12003 1-259, looked up)
chain: MPVFHTRTIESILEPVAQQISHLVIMHEEGEVDGKAIPDLTAPVSAVQAAVSNLVRVGKETVQTTEDQILKRDMPPAFIKVENACTKLVRAAQMLQADPYSVPARDYLIDGSRGILSGTSDLLLTFDEAEVRKIIRVCKGILEYLTVAEVVETMEDLVTYTKNLGPGMTKMAKMIDERQQELTHQEHRVMLVNSMNTVKELLPVLISAMKIFVTTKNTKSQGIEEALKNRNFTVEKMSAEINEIIRVLQLTSWDEDAWA
notes: vinculin D1 fragment, aa 1-259, the first 2 four-helix bundles; in pGEX-TEV; also called vinculin aa 1 to 259 (D1); vinculin N-terminus; source: E. coli BL21-Gold, purified (glutathione-agarose, TEV cleavage, Mono Q or Mono S, S200)
